Numbering of substitutions follows the chain as printed. In names and notes the source's numbering stands.
How the values were obtained:
Format in all cases: biochemical, rabbit
[1] = test system: ubiquitin-proteasome system (N-end rule pathway) in reticulocyte lysate; experiment: ECL assay for ubiquitylation in reticulocyte lysate using Sulfo-TAG-labeled Ub, streptavidin-coated IPR plate; settings: for IPR readings, Experiment 1 / IPR readings, Experiment 2: Sulfo-TAG-labeled Ub, reticulocyte lysate +
Protocol: (§1) Binding Buffer 2 (BB2) refers to 25 mM Tris-HCl buffer pH 7.4 containing 100 mM NaCl, 0.05 mM Na3VO4, 0.004% TritonX-100, 2 mM DTT and protease inhibitors (protease inhibitor cocktail, EDTA free, Roche Applied Science). Proteins were produced by coupled transcription/translation using TnT reaction mixes (Promega Corp, WI). The TNT Quick coupled transcription-translation system (Promega) contains rabbit reticulocyte lysate pre-mixed with most of the reaction components necessary to carry out transcription and translation in vitro (TNT mix), including all the amino acids except methionine. Unless otherwise noted, biotin-labeled in vitro translated proteins were produced in reaction mixtures that contained 8–30 μg/ml of a selected plasmid encoding protein of interest, 5 μl of TNT T7 Quick reticulocyte lysate mix (Promega Corp, WI) or TnT SP6 Quick Coupled Transcription/Translation System (Promega Corp, WI), 20 μM methionine, 50 μM MG-132 (Calbiochem, proteasome inhibitor to inhibit degradation of ubiquitylated proteins by proteasome) and 20 μg/ml biotinylated Lys-tRNA (transcend tRNA, Promega). The reactions were allowed to proceed for 20–90 min at 30° C. The reactions were stopped by the addition of BB1 supplemented with 20 mM AMP-PNP (Sigma, a non-hydrolyzable ATP analog), 20 mM N-ethylmaleimide (Sigma, an irreversible inhibitor of deubiquitylating enzymes) or, alternatively, by the addition of BB2. BB1 was used in screens involving the ubiquitination pathway. BB2 was used for other assay formats. The produced proteins were used in the assays of interest with or without further purification.
RGS4 was produced by transcription/translation of 30 μg/ml plasmid pcDNA3-RGS4 (Davydov and Varshavsky, 2000, J. Biol. Chem., 275:22931–22941) under the conditions described in Materials and Methods except for the addition of 1 μM Ub aldehyde (Calbiochem, to inhibit deubiquitylating enzymes) and 5 μM Sulfo-Tag-labeled Ub (having an average of 4.1 labels per Ub molecule). Then 3 μl of the reaction was mixed with 50 μl of BB1 in a 96-well streptavidin-coated non-plasma treated IPR (NPT IPR) plate.

[2] = test system: ubiquitylation in reticulocyte lysate; experiment: Ubiquitylation assay using Sulfo-TAG labeled FK2 antibody, streptavidin magnetic beads, M-8 Analyzer
Protocol: Transcription-translation reaction mixtures containing pcDNA3-RGS4 or pcDNA3-RGS4-C2V plazmids(Davydov and Varshavsky, 2000, J. Biol. Chem., 275:22931–22941) were prepared and used as described in the Example 2. The reaction products were mixed with 3 μg Sulfo-TAG labeled FK2 antibody in a 96-well plate in a binding buffer. Sulfo-TAG labeled FK2 antibody had 5.6 Sulfo-TAG labels per antibody molecule. […] Then 30 μl of BB1 supplemented with 20 mM AMP-PNP, 20 mM N-ethylmaleimide and containing 20 μg dynal beads streptavidin (Dynal) were added to each well, and the plate was left on the shaker at room temperature for another hour to allow for binding of biotinylated proteins to dynal beads. Thereafter the volume in each well was adjusted to 200 μl with BB1, and ECL signals were measured in M-8 Analyzer (IGEN International, Inc., Gaithersburg Md.).

[3] = test system: ubiquitylation in reticulocyte lysate; experiment: ECL ubiquitylation assay using Sulfo-TAG-labeled FK2 antibody and streptavidin-coated IPR plate
Protocol: The protein was prepared as described Example 2 and mixed with 60 μg/ml Sulfo-TAG-labeled FK2 antibody (Affiniti) having 5.6 labels per antibody, in a streptavidin-coated NPT IPR plate.

[4] = test system: ubiquitylation in reticulocyte lysate; experiment: Ubiquitylation assay using Sulfo-TAG labeled Ub, streptavidin magnetic beads, M-8 Analyzer
Protocol: Then 10 μl of the reaction product was mixed with 50 μl of BB1 supplemented with 20 mM AMP-PNP, 20 mM N-ethylmaleimide, and 20 μg streptavidin coated magnetic beads (Streptavidin Dyna-Beads, Dynal) in a 96-well plate. […] Thereafter the volume in each well was adjusted to 200 μl with binding buffer, and ECL signals were measured in M-8 Analyzer (IGEN International, Inc., Gaithersburg, Md.).

[5] = test system: N-end rule pathway ubiquitylation in reticulocyte lysate; experiment: ECL ubiquitylation assay using Sulfo-TAG-labeled streptavidin and IPR plate coated with FK2 antibody; settings: for IPR readings, Experiment 1 / IPR readings, Experiment 2: no dipeptide inhibitor
Protocol: as §1
Transcription-translation reaction mixtures were prepared as described in the Example 1 except that no labeled ubiquitin was added. Some reactions also contained 1 mM dipeptide inhibitor of the N-end rule pathway (either Arg-β-Ala, or Trp-Ala) together with 50 μM bestatin as indicated (Table 2). The reaction was allowed to proceed for 20 min at 30° C. Then 1 μl of the reaction was mixed with 50 μl of BB1 supplemented with 20 mM AMP-PNP, 20 mM N-ethylmaleimide, and 2 μg/ml Sulfo-TAG-labeled streptavidin in a well of an IPR plate coated with an anti-ubiquitin antibody (FK2 antibody, Affiniti). […] In a typical assay the presence of RGS4-encoding plasmid produced a 30–100 fold higher ECL signal compared to the empty vector (FIG. 2, Table 2). This signal was reduced 3–4 fold in the presence of Arg-β-Ala (a type 1 inhibitor of the N-end rule pathway), but not in the presence of Trp-Ala (a type 2 inhibitor of the N-end rule pathway) in agreement with the previous report that RGS4 is a type 1 N-end rule substrate in reticulocyte lysates (Davydov and Varshavsky, 2000, J. Biol. Chem., 275:22931–22941). In the same assay RGS4 produced 3–5 fold higher ECL signal compared to RGS4C2V, when the same amounts of the corresponding plasmids were added to the reaction mixtures (Table 2).

[6] = test system: ubiquitylation in reticulocyte lysates; experiment: 96-well screen of EST clones: ubiquitylation assay, FK2 antibody coated plate
Protocol: Transcription-translation reactions were assembled in a 96-well plate as described in Materials and Method in a total volume of 19 μl. The amounts of DNA in each reaction varied depending on DNA yields at purification stage, while the four positive control wells contained reactions with 20 μg/ml plasmid DNA. The reactions were incubated at 30° C. for 40 min.
After incubation, 1 μl of the TNT reaction was mixed with 50 μl of BB1 in an IPR plate coated with FK2 antibody (750 ng antibody per well) (see Materials and Methods).

[7] = test system: N-end rule pathway ubiquitylation in reticulocyte lysates; experiment: ECL ubiquitylation assay of EST clone proteins, FK2 antibody coated IPR plate
Protocol: The following EST clones in bacteria were obtained: IMAGE ID #, 3446518, 3446518, 3446518, 3914731 (RGS4), 3914731 (RGS4), 3914731 (RGS4) (Incyte, Palo Alto). Bacteria containing EST clones were grown in 2 ml LB with 50 μg/ml Amp, and DNA was isolated using QIAprep Spin Miniprep Kit (Qiagen). DNA yield was 5–20 μg.
Proteins were prepared from the EST clones in transcription-translation reaction mixtures (total volume 12.5 uL) as described in the Materials and Methods except for the addition of 1 μM Ub aldehyde (Calbiochem). Then 1 μl of the reaction product was mixed with 50 μl of BB1 supplemented with 20 mM AMP-PNP, 20 mM N-ethylmaleimide and 2 μg/ml Sulfo-TAG-labeled streptavidin in to each well of an IPR plate coated with FK2 antibody.
As previously reported, RGS4 is a substrate of the N-end rule-dependent ubiquitylation in reticulocyte lysates (Davydov and Varshavsky, 2000, J. Biol. Chem., 275:22931–22941). To determine if the protein produced from clone 3446518 was similarly ubiquitylated through the N-end rule pathway, the ECL ubiquitylation assay was performed in the presence of dipeptide inhibitors Arg-β-Ala (type 1 inhibitor of the N-end rule pathway), or Trp-Ala (type 2 inhibitor of the same pathway). As was shown on FIG. 2, the RGS4 signal was reduced 3–4 fold in the presence of Arg-β-Ala (a type 1 inhibitor of the N-end rule pathway), but not in the presence of Trp-Ala (a type 2 inhibitor of the N-end rule pathway) in agreement with the previous report that RGS4 is a type 1 N-end rule substrate in reticulocyte lysates (Davydov and Varshavsky, 2000, J. Biol. Chem., 275:22931–22941). In contrast, the dipeptides had little effect on the assay signal from clone 3446518 (FIG. 2). Thus, a different pathway of the ubiquitin system mediates ubiquitylation of the protein produced from clone 3446518.

B1: RGS4: Regulator of G-protein signaling 4, in vitro translated from plasmid pcDNA3-RGS4 (protein, UniProt P49798 1-205, looked up)
Regulator of G-protein …: MCKGLAGLPASCLRSAKDMKHRLGFLLQKSDSCEHNSSHNKKDKVVICQRVSQEEVKKWAESLENLISHECGLAAFKAFLKSEYSEENIDFWISCEEYKKIKSPSKLSPKAKKIYNEFISVQATKEVNLDSCTREETSRNMLEPTITCFDEAQKKIFNLMEKDSYRRFLKSRFYLDLVNPSSCGAEKQKGAKSSADCASLVPQCA
IPR readings, Experiment 1 [1]: 29294
IPR readings, Experiment 2 [1]: 27303
fold higher ECL signal compared to RGS4C2V ([1]; same amounts of plasmids): 3–4 fold
fold higher ECL signal compared to the empty vector ([1]; typical experiment): 5–15 fold
M-8 readings [2]: 187328
IPR readings ([3]; reticulocyte lysate +): 85993
fold higher ECL signal compared to the empty vector ([3]; typical assay): 15–30 fold
M-8 readings, Experiment 1 [4]: 87339
M-8 readings, Experiment 2 [4]: 71463
IPR readings, Experiment 1 [5]: 23441
IPR readings, Experiment 2 [5]: 23137
fold higher ECL signal compared to RGS4C2V ([5]; same amounts of plasmids): 3–5 fold
fold higher ECL signal compared to the empty vector ([5]; typical assay): 30–100 fold

B2: 3912628: IMAGE clone protein: RGS4 (protein, UniProt P49798 1-205, looked up)
Regulator of G-protein …: B1 Regulator of G-protein …
signal in ubiquylation screen (FIG. 2, in words) [6]: strong specific signal
signal in ubiquitylation assay (in words) [7]: strong specific signal

B3: 3920860: IMAGE clone protein: RGS4 (protein, UniProt P49798 1-205, looked up)
Regulator of G-protein …: B1 Regulator of G-protein …
signal in ubiquylation screen (FIG. 2, in words) [6]: strong specific signal
signal in ubiquitylation assay (in words) [7]: strong specific signal

B4: 3914731: IMAGE clone protein: RGS4 (protein, UniProt P49798 1-205, looked up)
Regulator of G-protein …: B1 Regulator of G-protein …
signal in ubiquylation screen (FIG. 2, in words) [6]: strong specific signal
signal in ubiquitylation assay (in words) [7]: strong specific signal
ECL readings, Experiment 1 ([7]; no dipeptide inhibitor): 41670
ECL readings, Experiment 2 ([7]; no dipeptide inhibitor): 43729
ECL readings, Experiment 3 ([7]; no dipeptide inhibitor): 41806

B5: RGS4-C2V: RGS4C2V mutant, in vitro translated from pcDNA3-RGS4-C2V (protein, UniProt P49798 1-205, looked up, variant C2V)
Regulator of G-protein …: B1 Regulator of G-protein … with C2V
IPR readings, Experiment 1 [1]: 7744
IPR readings, Experiment 2 [1]: 7614
M-8 readings [2]: 14689
M-8 readings, Experiment 1 [4]: 30201
M-8 readings, Experiment 2 [4]: 26712
IPR readings, Experiment 1 [5]: 5567
IPR readings, Experiment 2 [5]: 5362

Reference: patent US7063946B2, “Methods, reagents, kits and apparatus for protein function analysis” (Meso Scale Technologies, LLC., priority 2001, dated 2006)
